Target: VEGF receptor Flk-1 on rat neural stem cells (rat) (UniProt O08775)
Test: cell-based or functional assay

VEGF receptor Flk-1 on rat neural stem cells (rat), sequence (O08775 20-1343): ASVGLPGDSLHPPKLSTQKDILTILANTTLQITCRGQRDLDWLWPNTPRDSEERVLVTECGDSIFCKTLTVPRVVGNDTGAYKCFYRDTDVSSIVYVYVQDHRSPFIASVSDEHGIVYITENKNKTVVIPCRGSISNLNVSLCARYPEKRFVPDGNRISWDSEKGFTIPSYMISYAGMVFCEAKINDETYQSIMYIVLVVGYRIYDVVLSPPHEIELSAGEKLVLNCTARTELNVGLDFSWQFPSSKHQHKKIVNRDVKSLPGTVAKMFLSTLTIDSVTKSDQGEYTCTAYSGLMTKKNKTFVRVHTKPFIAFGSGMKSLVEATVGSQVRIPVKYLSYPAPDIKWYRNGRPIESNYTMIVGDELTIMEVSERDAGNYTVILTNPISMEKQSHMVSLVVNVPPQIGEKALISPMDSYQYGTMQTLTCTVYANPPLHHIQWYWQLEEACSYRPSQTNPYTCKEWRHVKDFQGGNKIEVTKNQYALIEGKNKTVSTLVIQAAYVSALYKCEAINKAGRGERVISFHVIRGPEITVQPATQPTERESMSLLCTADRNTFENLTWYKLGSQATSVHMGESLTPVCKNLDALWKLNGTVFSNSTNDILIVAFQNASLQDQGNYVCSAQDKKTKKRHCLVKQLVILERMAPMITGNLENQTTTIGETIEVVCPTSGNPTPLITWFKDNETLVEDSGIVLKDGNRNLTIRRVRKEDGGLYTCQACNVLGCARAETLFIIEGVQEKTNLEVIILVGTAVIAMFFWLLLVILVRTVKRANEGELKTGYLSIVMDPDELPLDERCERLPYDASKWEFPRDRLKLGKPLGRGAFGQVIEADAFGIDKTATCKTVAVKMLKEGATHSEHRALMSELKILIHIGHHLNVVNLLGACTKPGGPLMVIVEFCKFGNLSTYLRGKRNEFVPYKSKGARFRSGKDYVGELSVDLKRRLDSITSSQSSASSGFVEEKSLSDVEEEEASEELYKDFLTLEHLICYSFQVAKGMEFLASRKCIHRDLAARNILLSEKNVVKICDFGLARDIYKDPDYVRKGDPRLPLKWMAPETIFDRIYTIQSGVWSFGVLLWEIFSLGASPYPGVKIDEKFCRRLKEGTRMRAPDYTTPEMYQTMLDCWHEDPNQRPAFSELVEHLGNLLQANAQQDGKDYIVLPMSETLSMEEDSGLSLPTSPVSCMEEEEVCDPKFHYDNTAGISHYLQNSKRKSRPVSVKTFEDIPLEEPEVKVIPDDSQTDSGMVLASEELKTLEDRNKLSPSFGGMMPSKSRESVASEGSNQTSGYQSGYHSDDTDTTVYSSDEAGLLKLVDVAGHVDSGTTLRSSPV

## mouse recombinant VEGF164 (from UniProt Q00731 27-190) (ligand)
  ED50 of expansion of neural stem cell cultures (cell number after 7 days): 10 ng/mL
  concentration of maximal stimulation of neural stem cell expansion: 50 ng/mL
